The target in experiment [1] is T1, VEGF165 (vascular endothelial cell growth factor, 165 isoform), recombinant from E. coli, refolded dimer (human, UniProt P15692-4 27-191, Example 1: about 4 AMCA coumarins per VEGF165, sites not given; Example 3 screen: biotinylated, sites not given).
T1 construct: Tags from the pRSET vector are not mentioned; also called coumerin-VEGF; coumarin-labeled VEGF165
Description: on-bead colorimetric screen, about 0.25 nM biotinylated VEGF165 with 1 equivalent of heparin. On the procedure: The resin was rinsed with TBS (5×) and 200 μL of 5-bromo-4-chloro-3-indoylphosphate p-toluidine salt/nitro blue tetrazolium chloride (BCIP/NBT) reagent was added to develop a blue/black color where the streptavidin alkaline phosphatase was present. Nonspecific adsorption of the streptavidin alkaline phosphatase was detected as blue/black stained beads. After 15 minutes, the resin was rinsed with TBS (5×) prior to adding 100 μL of about 0.25 nM of biotinylated VEGF₁₆₅ in the presence or absence of 1 or 10 equivalents of heparin sodium salt (isolated from porcine intestinal mucosa) in 400 μL of blocking buffer. The mixture was shaken overnight, the solution removed, the resin washed with TBS (6×), and 1 mL streptavidin alkaline phosphatase (diluted 1:1000 from a 1 mg/mL solution) was added. The streptavidin alkaline phosphatase preferentially attached to beads having VEGF since the VEGF was attached to biotin, which is a ligand for the streptavidin on the streptavidin alkaline phosphatase. After 2 h the solution was removed and rinsed with TBS (5×) and Fast Red substrate (PIERCE) was added to make the presence of the alkaline phosphatase visible by making a red color. Positive beads were those that were stained red. The red beads were selected, and subjected to 8M guanidine-HCl, pH=1.4 for 20 minutes prior to rinsing with H20 (3×) and DMF until residual color was removed. […]

Experiment [2] has as its target T1, VEGF165 (vascular endothelial cell …). Description: SPR. Background: In SPR one partner is held on a chip, and binding of the other changes the refractive index at the surface.

Square brackets hold non-standard residues; d marks the D form. Ends that are not written are not given here. sY = N[C@@H](Cc1ccc(OS(=O)(=O)O)cc1)C(=O)O

T1 sequence (P15692 other isoform, or with tags, fused parts or gaps limits assumed): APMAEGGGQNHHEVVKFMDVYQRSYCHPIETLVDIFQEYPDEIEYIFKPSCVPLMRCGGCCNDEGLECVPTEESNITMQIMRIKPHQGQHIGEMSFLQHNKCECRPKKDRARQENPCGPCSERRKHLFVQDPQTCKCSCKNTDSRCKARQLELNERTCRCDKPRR

For [sY][sY]GG[sY]D[sY]GGGG-{PEGA resin} (not fully specified (N-terminus); printed as Y(SO3)Y(SO3)GGY(SO3)DY(SO3)) [Y(SO3)Y(SO3)GGY(SO3)DY(SO3)-Gly-Gly-Gly-Gly-PEGA bead], in experiment [1], the binding result is reported as “binds”.

For F[sY]GG[sY]D[sY]GGGG-{PEGA resin} (not fully specified (N-terminus)) [FY(SO3)GGY(SO3)DY(SO3)-Gly-Gly-Gly-Gly-PEGA bead], in experiment [1], the binding result was “binds”.

B1: Y(SO3)Y(SO3)GGY(SO3)DY(SO3)G (peptide)
peptide: [sY][sY]GG[sY]D[sY]G
modifications: not fully specified (N-terminus, C-terminus); printed as Y(SO3)Y(SO3)GGY(SO3)DY(SO3)G
notes: Independently synthesized free peptide used in SPR
With B1, the Kd (usually the free concentration of one partner at which half of the binding sites on the other are occupied at equilibrium, for simple one-to-one binding) in experiment [2] was 140 nM.

B2: SY(SO3)DY(SO3)G (peptide)
peptide: S[sY]D[sY]G
modifications: not fully specified (C-terminus); printed as SY(SO3)DY(SO3)G
notes: as for B1
Turning to B2, the Kd in experiment [2] amounted to 3100 nM.

The record behind these values is patent publication US20030064410A1 (ECOLE POLYTECHNIQUE FEDERALE DE LAUSANNE EPFL, published 2003).
